Test results as given in US20200239555A1 (STATEN BIOTECHNOLOGY B V, published 2020).
Residue numbers refer to the chain shown, from its start. “And” between values parts separate entries of the source, which are not always exact repeats. Equal entries are not always repeated. Blank lines part the entries; values can stand above or below the binder they belong to.

Assays:
[1] = target: T1, biotinylated native human ApoC3 (human, UniProt P02656 21-99, biotinylated (site not stated)); assay: SPR, IgG1 over biotinylated ApoC3 on SA chip, pH 7.4
T1 construct: also called biotinylated human ApoC3
T1 sequence (P02656 21-99): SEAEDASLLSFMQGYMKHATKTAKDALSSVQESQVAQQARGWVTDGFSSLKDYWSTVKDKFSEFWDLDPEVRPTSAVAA
Experimental: (§1) Biotinylated native human ApoC3 was captured on a streptavidin coated SPR chip (GE Healthcare, cat. nr. BR100032) at pH 7.4, in accordance with the method provided by Biacore, by injection of 20 μl 10 μg/ml biotinylated native human ApoC3 reaching the surface density of approximately 500 RU. 60 μL of test antibody in 1-50 nM range diluted in HBS-EP buffer (GE, cat # BR-1008-26; 0.010 M HEPES, 0.150M NaCl, 3 mM EDTA, 0.05% (v/v) surfactant P20, pH 7.4) was injected and passed through the flow cells at a flow rate of 30 μl/min, followed by an off-rate wash at pH7.4 for 5 min. After the dissociation, the flow cell surfaces were regenerated by injecting 10 μl of 10 mM NaOH/1 M NaCl and 10 μl of 10 mM glycine at pH1.5. The assay was repeated at pH5.5 using the same general protocol, where the running and sample dilution buffer was replaced by a HBS-EP buffer supplemented with citrate buffer to 10 mM final concentration and pH adjusted to 5.5.
(§2) The resulting sensorgrams were analyzed using the BIAevaluation 4.1 software using Langmuir 1:1 binding model to derive binding kinetics. Data was zero adjusted and the reference cell sensorgrams were subtracted. Sensorgrams were double referenced to no-analyte blank assay. Fitted parameters were considered not applicable if off-rate values were below the equipment's detection limit of kd: 1×10⁻⁶ 1/s.

[2] = target: T1, biotinylated native human ApoC3; assay: SPR, IgG1 over biotinylated ApoC3 on SA chip
Experimental: as §1, §2

native human ApoC3 [3] = target: T2, native human ApoC3 (human, UniProt P02656 21-99); assay: SPR, ApoC3 over captured IgG1, pH 7.4; pH 7.4; ApoC3 600-50 nM over immobilized antibody
T2 construct: also called nhuApoC3; native huApoC3
T2 sequence (P02656 21-99): as above
Experimental: An inverted SPR assay was designed in which a test antibody was captured on an SPR chip, human ApoC3 protein was injected, and binding of ApoC3 to the antibody was measured. […] The immobilization was performed in accordance with the method provided by Biacore/GE using the NHS/EDC kit (Biacore AB, Cat.nr. BR-1000-50): after activation of the chip, a solution of 30 μg/ml of anti-human Fcγ antibody in 10 mM acetate buffer with pH of 5.0 was prepared and injected until the surface density reached approximately 10000 RU. The analytical cycle comprised the following steps:
The resulting sensorgrams were analyzed using the BIAevaluation 4.1 software using Langmuir 1:1 binding model to derive binding kinetics. Data was zero adjusted, the reference cell sensorgrams were subtracted and the no analyte blank assay was used for double referencing the sensorgrams corresponding to the analyte injections. The dissociation and association phase sensorgrams were fitted separately for the 4 different concentration curves. Sensorgrams were excluded from the fitting if maximum RU values reached were below the detection limit of the equipment (<5 RU), Biacore 3000 (Biacore AB).

[4] = target: T1, biotinylated native human ApoC3; assay: SPR, IgG1 over biotinylated ApoC3 on SA chip, pH 5.5
Experimental: as §1, §2

[5] = target: T1, biotinylated native human ApoC3; assay: SPR, scFv-Fc over biotinylated ApoC3 on SA chip, pH 7.4
[6] = target: T1, biotinylated native human ApoC3; assay: SPR, scFv-Fc over biotinylated ApoC3 on SA chip, pH 5.5
[7] = target: T1, biotinylated native human ApoC3; assay: SPR, scFv-Fc over biotinylated ApoC3 on SA chip
[8] = target: T1, biotinylated native human ApoC3; assay: SPR, IgG1 over biotinylated ApoC3 on SA chip, pH 5.5; pH 5.5
native human ApoC3 [9] = target: T2, native human ApoC3; assay: SPR, IgG1 over ApoC3 on CM5 chip, pH 5.5
Experimental: (§3) Based on the results in Example 1, test scFv-Fc antibodies were generated as human IgG₁ antibodies. An SPR-based assay was employed, in which human ApoC3 protein was immobilized on a CM5 chip, and the binding kinetics of test antibodies to the coated chip were measured at both pH 7.4 and pH 5.5. Briefly, a solution of 50 μg/ml of native human ApoC3 in 10 mM acetate buffer at pH 4.5 was prepared and injected until the surface density reached approximately 500 RU. 60 μl of each test antibody was diluted in HBS-EP buffer (GE, cat. nr. BR-1008-26; 0.010 M HEPES, 0.150M NaCl, 3 mM EDTA, 0.05% (v/v) surfactant P20, pH 7.4), and was injected at a concentration as described in Table 9. The test antibodies were passed through the flow cells at a flow rate of 30 μl/min, followed by an off-rate wash at pH 7.4 or pH 5.5 for 5 min. The resulting sensorgrams were analyzed using the BIAevaluation 4.1 software applying the Langmuir 1:1 binding model to derive binding kinetics. Data was zero adjusted and the reference cell sensorgrams were subtracted.

native human ApoC3 [10] = target: T2, native human ApoC3; assay: SPR, IgG1 over ApoC3 on CM5 chip, pH 7.4
Experimental: as §3

[11] = target: T1, biotinylated native human ApoC3; assay: SPR, IgG1 over biotinylated ApoC3 on SA chip, pH 7.4; pH 7.4; native ApoC3 on CM5 chip
native human ApoC3 [12] = target: T2, native human ApoC3; assay: SPR, IgG1 over ApoC3 on CM5 chip, pH 7.4; pH 7.4; IgG1 over native ApoC3 on CM5 chip
Experimental: as §3

[13] = target: T1, biotinylated native human ApoC3; assay: SPR, IgG1 over biotinylated ApoC3 on SA chip, pH 7.4; pH 7.4
Experimental: as §1, §2

B2: mAb14 (antibody, IgG1, V domains shown)
VH: QLLESGGGLVQPGGSLRLSCAASGFTFGTYSMRWVRQVPGKGLEWVSSIHTEGGGTAYRDSVKGRFTISRDNSKNTLYLQMNSLRAEDTAVYYCVIAGYSDWGQGTLVTVSS
VL: DIVMTQSPLSLPVTPGEPASISCKTSQGLVHSDGKTYFYWYLQKPGQSPQLLIYQVSNRASGVPDRFSGSGSGTDFTLKISRVEAEDVGVYYCAHGTYYPHTFGQGTRLEIK
notes: Produced as full length IgG1 (kappa) in ExpiCHO-S cells; CDR graft into the closest human germline frameworks; also called humanized anti-ApoC3 antibody mAb14; variant 14
Ka [1]: 3.38e+08 M⁻¹
koff [1]: 0.000427 s⁻¹
kon [1]: 144000 M⁻¹ s⁻¹
KD pH5.5/KD pH7.4 [2]: 7.2
Ka (native human ApoC3 [3]): 567000 M⁻¹
koff (native human ApoC3 [3]): 0.0458 s⁻¹
kon (native human ApoC3 [3]): 26000 M⁻¹ s⁻¹
Ka [4]: 4.7e+07 M⁻¹
koff [4]: 0.00788 s⁻¹
kon [4]: 370000 M⁻¹ s⁻¹

B3: 5E5WT scFv-Fc (scFv, part only; not given: Linker, domain order, Fc, V domains shown, not shown: another chain or arm of the molecule; a dimerising Fc or GST; small tags and cut ends)
VH: QLQLVESGGGLVQPGGSLRLSCAASGFTFGTYSMRWVRQVPRKALEWVSSISTDGGGTAYRDSVKGRFTISRDNAKNTLYLQMNNLKPEDTAIYYCVIAGYSDWGQGTQVTVSS
VL: ATMLTQSPGSLSVVPGESASISCKTSQGLVHSDGKTYFYWFLQKPGQSPQQLIYQVSNRASGVPDRFTGSGSGTDFTLKISGVKAEDAGVYYCAQGTYYPHTFGSGTRLEIK
Kd [5]: 0.02 nM
koff [5]: 1.75e-05 s⁻¹
kon [5]: 823000 M⁻¹ s⁻¹
Kd [6]: 0.06 nM
koff [6]: 2.53e-05 s⁻¹
kon [6]: 393000 M⁻¹ s⁻¹
KD pH 5.5/KD pH 7.4 [7]: 3

B4: 5E5WT human IgG1 (antibody, V domains shown)
VH: B3 VH
VL: B3 VL
Ka [1]: 1.95e+10 M⁻¹
Kd [1]: 0.05 nM
koff [1]: 1.79e-05 s⁻¹
KD pH5.5/KD pH7.4 [2]: 0.97
Ka [8]: 2.01e+10 M⁻¹
koff (native human ApoC3 [9]): 1.7e-05 s⁻¹
kon (native human ApoC3 [9]): 340000 M⁻¹ s⁻¹
Kd [4]: 0.05 nM
koff [4]: 1.7e-05 s⁻¹
kon [4]: 340000 M⁻¹ s⁻¹
koff (native human ApoC3 [10]): 1.79e-05 s⁻¹
kon (native human ApoC3 [10]): 350000 M⁻¹ s⁻¹
kon [11]: 350000 M⁻¹ s⁻¹

B8: 5E5VH5VH12_VL8 human IgG1 (antibody, V domains shown)
VH: B3 VH with S52H, A99H
VL: B3 VL with Q95H
koff (native human ApoC3 [12]): 0.0028 s⁻¹
kon (native human ApoC3 [12]): 125000 M⁻¹ s⁻¹

Results, then the binder that gave them:

Ka [1]: 2.38e+08 M⁻¹
koff [1]: 0.000461 s⁻¹
kon [1]: 110000 M⁻¹ s⁻¹
KD pH5.5/KD pH7.4 [2]: 1.33
Ka (native human ApoC3 [3]): 998000 M⁻¹
koff (native human ApoC3 [3]): 0.037 s⁻¹
kon (native human ApoC3 [3]): 37000 M⁻¹ s⁻¹
Ka [4]: 1.8e+08 M⁻¹
koff [4]: 0.00267 s⁻¹
kon [4]: 479000 M⁻¹ s⁻¹
B1: mAb13 (antibody, IgG1, V domains shown)
VH: B2 VH with G28S
VL: B2 VL
notes: Produced as full length IgG1 (kappa) in ExpiCHO-S cells; CDR graft into the closest human germline frameworks; also called humanized anti-ApoC3 antibody mAb13; variant 13

Kd [5]: 0.51 nM
koff [5]: 0.000157 s⁻¹
kon [5]: 308000 M⁻¹ s⁻¹
Kd [6]: 16 nM
koff [6]: 0.00206 s⁻¹
kon [6]: 129000 M⁻¹ s⁻¹
KD pH 5.5/KD pH 7.4 [7]: 31.4
B5: 5E5VH12_VLWT scFv-Fc (scFv, part only; not given: Linker, domain order, Fc, V domains shown, not shown: another chain or arm of the molecule; a dimerising Fc or GST; small tags and cut ends)
VH: B3 VH with A99H
VL: B3 VL

Kd [5]: 0.58 nM
koff [5]: 0.000221 s⁻¹
kon [5]: 381000 M⁻¹ s⁻¹
koff [6]: 0.00116 s⁻¹
kon [6]: 269000 M⁻¹ s⁻¹
KD pH 5.5/KD pH 7.4 [7]: 7.4
B6: 5E5VHWT_VL8 scFv-Fc (scFv, part only; not given: Linker, domain order, Fc, V domains shown, not shown: another chain or arm of the molecule; a dimerising Fc or GST; small tags and cut ends)
VH: B3 VH
VL: B3 VL with Q95H

Kd [5]: 0.59 nM
koff [5]: 0.000105 s⁻¹
kon [5]: 178000 M⁻¹ s⁻¹
koff [6]: 0.0016 s⁻¹
kon [6]: 147000 M⁻¹ s⁻¹
KD pH 5.5/KD pH 7.4 [7]: 18.5
B7: 5E5VH5_VLWT scFv-Fc (scFv, part only; not given: Linker, domain order, Fc, V domains shown, not shown: another chain or arm of the molecule; a dimerising Fc or GST; small tags and cut ends)
VH: B3 VH with S52H
VL: B3 VL

Kd [1]: 0.0171 nM and 0.02 nM
koff [1]: 1.12e-05 s⁻¹
kon [1]: 656000 M⁻¹ s⁻¹
KD pH5.5/KD pH7.4 [2]: 27.6
koff (native human ApoC3 [9]): 0.000374 s⁻¹
kon (native human ApoC3 [9]): 366000 M⁻¹ s⁻¹
Ka [13]: 5.84e+10 M⁻¹
Ka [4]: 2.12e+09 M⁻¹
Kd [4]: 0.472 nM and 0.47 nM
koff [4]: 0.000143 s⁻¹
kon [4]: 302000 M⁻¹ s⁻¹
koff (native human ApoC3 [10]): 1.38e-05 s⁻¹
kon (native human ApoC3 [10]): 393000 M⁻¹ s⁻¹
B9: 5E5VH12_VLWT human IgG1 (antibody, V domains shown)
VH: B3 VH with A99H
VL: B3 VL
